Patent US20230192839A1, “ANTIBODIES HAVING CONDITIONAL AFFINITY AND METHODS OF USE THEREOF” (PFIZER INC., priority 2017, published 2023)

How the values were obtained:
human CD33 = assay: Biacore SPR binding kinetics of anti-CD33 scFv-Fc clones with or without 10 µM MTX; conditions: CD33, 37° C., pH 7.4; for koff, kinetics toward antigen with 0 µM MTX / kon, kinetics toward antigen with 0 µM MTX: scFv-Fc
Text: The first 4 rounds of panning used biotinylated CD33 antigen captured on streptavidin or neutravidin coated 96-well plates. […] 1536 clones were randomly chosen from the 4th and 5th round of panning against the CD33 antigen and their binding specificity determined by phage ELISA. Clones that specifically bound to CD33 were sequenced and all unique clones were subjected to a phage competition ELISA to assess their relative affinities to CD33 and sensitivity to MTX by measuring their binding strengths in the presence or absence of 10 µM (micromolar) MTX (i.e. in 0 or 10 µM MTX).
(§1) All binding kinetics analysis was performed on label-free Biacore surface plasmon biosensors (Biacore T200™ from GE Life Sciences) at 37° C. in 10 mM Hepes pH 7.4, 150 mM NaCl, 0.05% Tween-20 (HBST+), with or without 10 µM MTX. The Biacore data were processed in Biacore T200 Evaluation Software, and the data were double-referenced (Myszka, 1999, J Mol Recognit 12(5):279-284) and fit globally to a simple Langmuir with mass transport model to determine the equilibrium dissociation constant, KD, from the ratio of the kinetic rate constants (KD = koff/kon). In some cases the binding of antigen was very low (or not detectable) in the presence of 10 µM MTX and as a result kinetic rate constants could not be accurately determined. In these cases, a KD (or KD limit) was estimated based on the binding response at the highest analyte concentration tested or based on the typical limit of detection for a Biacore T200.

[1] = system: human epidermal growth factor receptor (EGFR); assay: Biacore SPR binding kinetics of anti-EGFR scFv-Fc clones with or without 10 µM MTX; conditions: 37° C.; for koff, kinetics toward antigen with 0 µM MTX / kon, kinetics toward antigen with 0 µM MTX / koff, kinetics toward antigen with 10 µM MTX / kon, kinetics toward antigen with 10 µM MTX: pH 7.4, scFv-Fc; for koff, kinetics toward antigen with 10 µM MTX / kon, kinetics toward antigen with 10 µM MTX / Kd: 10 µM MTX; for Kd: pH 7.4, koff/kon, or estimated from binding response / limit of detection for weak interactions, read-out: KD, kinetics toward antigen with 10 µM MTX
Description: as §1, with “T200. […]” for “T200.”

Row | Molecule | koff, kinetics toward antigen with 0 µM MTX (human CD33) [s⁻¹] | kon, kinetics toward antigen with 0 µM MTX (human CD33) [M⁻¹ s⁻¹] | Kd (human CD33; 10 µM MTX, koff/kon, or estimated from binding response / limit of detection for weak interactions, read-out: KD, kinetics toward antigen with 10 µM MTX) [µM] | koff, kinetics toward antigen with 0 µM MTX [1] [s⁻¹] | kon, kinetics toward antigen with 0 µM MTX [1] [M⁻¹ s⁻¹] | koff, kinetics toward antigen with 10 µM MTX [1] [s⁻¹] | kon, kinetics toward antigen with 10 µM MTX [1] [M⁻¹ s⁻¹] | Kd [1] [µM]
1 | P02_E11: anti-CD33 clone with conditional affinity; VH SEQ ID NO: 15, VL SEQ ID NO: 16; also as scFv in CAR (antibody, V domains shown, Synthetic Antibody, also as scFv in CAR) VH: QVQLVESGGGLVQAGGSLRLSCAASRRSSRSWAMHWVRQAPGKGLEWVAVISYDGRLKYYADSVKGRFTISRDNAEYLVYLQMNSLRAEDTAVYYCAAEASTDNGLDYWGQGTLVTVSS VL: DIQMTQSPSSLSASVGDRVTITCRASQTISRHLNWYQQKPGKAPKLLIYSASSLASGVPSRFSGSGSGTDFTLTISSLQPEDFATYYCQQSHSAGTFGQGTKVEIK | 0.0038 | 58000 |  |  |  |  |  | 
2 | P02_H01: anti-CD33 clone with conditional affinity; VH SEQ ID NO: 17, VL SEQ ID NO: 18 (antibody, V domains shown, Synthetic Antibody) VH: QVQLVESGGGLVQAGGSLRLSCAASRRSSRSWAMHWVRQAPGKGLEWVAVISYDGRLKYYADSVKGRFTISRDNAEYLVYLQMNSLRAEDTAVYYCAAGSGGGDGLDVWGQGTLVTVSS VL: DIQMTQSPSSLSASVGDRVTITCRASQTISSYLNWYQQKPGKAPKLLIYSSSTLQGGVPSRFSGSGSGTDFTLTISSLQPEDFATYYCQQSYSSGTFGQGTKVEIK | 0.037 | 28000 |  |  |  |  |  | 
3 | P03_G12: anti-CD33 clone with conditional affinity; VH SEQ ID NO: 21, VL SEQ ID NO: 22 (antibody, V domains shown, Synthetic Antibody) VH: QVQLVESGGGLVQAGGSLRLSCAASRRSSRSWAMHWVRQAPGKGLEWVAVISYDGRLKYYADSVKGRFTISRDNAEYLVYLQMNSLRAEDTAVYYCAADPTEGWSYLDYWGQGTLVTVSS VL: DIQMTQSPSSLSASVGDRVTITCRASQGISSYLNWYQQKPGKAPKLLIYGASRLQSGVPSRFSGSGSGTDFTLTISSLQPEDFATYYCQQGYSSGTFGQGTKVEIK | 0.0094 | 71000 | > 10.9 |  |  |  |  | 
4 | P01_B06: anti-EGFR reference clone, less than 2-fold MTX effect; VH SEQ ID NO: 129, VL SEQ ID NO: 130 (antibody, V domains shown, Synthetic Antibody) VH: QVQLVESGGGLVQAGGSLRLSCAASRRSSRSWAMHWVRQAPGKGLEWVAVISYDGRLKYYADSVKGRFTISRDNAEYLVYLQMNSLRAEDTAVYYCAADTSMFASYDPMDVWGQGTLVTVSS VL: QSVLTQPPSASGTPGQRVTISCSGSSSNIGRNYVNWYQQLPGTAPKLLIYRDDHRPSGVPDRFSGSKSGTSASLAISGLRSEDEADYYCASWDDTLSGWVFGTGTKLTVL |  |  |  | 0.024 | 100000 | 0.026 | 100000 | 
5 | P14_E03: anti-EGFR clone with conditional affinity; VH SEQ ID NO: 125, VL SEQ ID NO: 126 (antibody, V domains shown, Synthetic Antibody) VH: QVQLVESGGGLVQAGGSLRLSCAASRRSSRSWAMHWVRQAPGKGLEWVAVISYDGRLKYYADSVKGRFTISRDNAEYLVYLQMNSLRAEDTAVYYCAAAPRVDWSDVSSGIDYWGQGTLVTVSS VL: QSVLTQPPSASGTPGQRVTISCSGSISNIGTNNVYWYQQLPGTAPKLLIYRNNQRPSGVPDRFSGSKSGTSASLAISGLRSEDEADYYCSAWDDSLSGVVFGTGTKLTVL |  |  |  | 0.00067 | 110000 | 0.00072 | 29000 | 
6 | P07_H08: anti-EGFR clone with conditional affinity; VH SEQ ID NO: 121, VL SEQ ID NO: 122; also as scFv in CAR (antibody, V domains shown, Synthetic Antibody, also as scFv in CAR) VH: QVQLVESGGGLVQAGGSLRLSCAASRRSSRSWAMHWVRQAPGKGLEWVAVISYDGRLKYYADSVKGRFTISRDNAEYLVYLQMNSLRAEDTAVYYCAAGFDWGWDSSDIYSAMDYWGQGTLVTVSS VL: DIQMTQSPSSLSASVGDRVTITCRASQNIGRYLHWYQQKPGKAPKLLIYSASNLQSGVPSRFSGSGSGTDFTLTISSLQPEDFATYYCQQSYSSPFTFGQGTKVEIK |  |  |  | 0.27 | 330000 |  |  | > 9.37
7 | P05_A11: anti-EGFR clone with conditional affinity; VH SEQ ID NO: 133, VL SEQ ID NO: 134; also as scFv in CAR (antibody, V domains shown, Synthetic Antibody, also as scFv in CAR) VH: QVQLVESGGGLVQAGGSLRLSCAASRRSSRSWAMHWVRQAPGKGLEWVAVISYDGRLKYYADSVKGRFTISRDNAEYLVYLQMNSLRAEDTAVYYCAASDDADIFDDYSYGAMDYWGQGTLVTVSS VL: QSVLTQPPSASGTPGQRVTISCSGSSSNIGRNYVYWYQQLPGTAPKLLIYMTSQRPSGVPDRFSGSKSGTSASLAISGLRSEDEADYYCASWDDNLRAWVFGTGTKLTVL |  |  |  | 0.028 | 120000 | 0.05 | 87000 | 
8 | P01_F02: anti-EGFR clone with conditional affinity; VH SEQ ID NO: 119, VL SEQ ID NO: 120; also as scFv in CAR (antibody, V domains shown, Synthetic Antibody, also as scFv in CAR) VH: QVQLVESGGGLVQAGGSLRLSCAASRRSSRSWAMHWVRQAPGKGLEWVAVISYDGRLKYYADSVKGRFTISRDNAEYLVYLQMNSLRAEDTAVYYCAADVESALAYGEPYHHMDVWGQGTLVTVSS VL: QSVLTQPPSASGTPGQRVTISCSGSSSNIGRNYVYWYQQLPGTAPKLLIYRTSQRPSGVPDRFSGSKSGTSASLAISGLRSEDEADYYCATWDDSLSGWVFGTGTKLTVL |  |  |  | 0.011 | 61000 |  |  | > 9.41
